This passage reports binding relative to SYD-2LH1 (percent) results from PMC3500560.

For this test, the target named is His6-tagged SYD-2LH1 (C. elegans) (UniProt Q21049). Put plainly: pull-down.
Sequence of His6-tagged SYD-2LH1 (C. elegans) (Q21049 91-217): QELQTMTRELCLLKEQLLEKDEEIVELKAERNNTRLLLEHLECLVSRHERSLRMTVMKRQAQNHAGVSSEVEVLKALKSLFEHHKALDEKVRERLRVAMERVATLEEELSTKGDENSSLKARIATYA

As to “GST-LH1Δ (Δ179–198) (from UniProt Q21049 1-1139) (domain or fragment)”, the binding relative to SYD-2LH1 (percent) was < 10%.
